# Test results: patent US6987169
# Biological target: hIK1 intermediate conductance, calcium-activated potassium channel (human) (UniProt O15554)
# Test: cell-based or functional assay
# iberiotoxin, sequence (P24663 whole entry): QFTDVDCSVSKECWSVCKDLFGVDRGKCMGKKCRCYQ
# hIK1 intermediate conductance, calcium-activated potassium channel (human), sequence (O15554 other isoform, or with tags, fused parts or gaps): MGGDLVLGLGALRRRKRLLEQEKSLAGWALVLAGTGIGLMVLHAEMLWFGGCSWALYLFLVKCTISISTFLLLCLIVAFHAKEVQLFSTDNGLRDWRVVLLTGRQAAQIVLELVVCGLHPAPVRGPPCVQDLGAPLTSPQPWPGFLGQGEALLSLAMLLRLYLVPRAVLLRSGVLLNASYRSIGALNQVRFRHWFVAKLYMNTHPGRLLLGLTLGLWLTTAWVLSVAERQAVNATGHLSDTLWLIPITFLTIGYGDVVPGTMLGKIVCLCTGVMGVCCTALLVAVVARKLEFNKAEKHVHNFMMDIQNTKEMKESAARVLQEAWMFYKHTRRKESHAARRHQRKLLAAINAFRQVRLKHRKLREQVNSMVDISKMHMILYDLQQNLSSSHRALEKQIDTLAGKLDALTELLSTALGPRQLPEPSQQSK
substance,measurement,value
iberiotoxin (from UniProt P24663 1-37) (peptide),percent block of hIK1 currents at 50 nM,15%
